Laboratory results: patent publication US20230414780A1 (VECT HORUS, published 2023)

How the values were obtained:
[1] = molecular target: T1, human TfR ectodomain fused to a mouse IgG1 Fc fragment (human, UniProt P02786 89-760); test: SPR, kinetic
T1 construct: extracellular domain; ectodomain fused to the N-terminal end of the Fc, made in-house; not shown: mouse IgG1 Fc fragment
Outline: (§1)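 TfR–mouse Fc fusions, produced in-house, captured on HC 1500M or CM5 chips either directly or via immobilized anti-mouse IgG. VHHs injected in single-cycle or multiple-cycle kinetic mode on Biacore T200.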

[2] = molecular target: T2, mouse TfR ectodomain fused to a mouse IgG1 Fc fragment (mouse, UniProt Q62351 89-763); test: SPR, kinetic
T2 construct: extracellular domain; not shown: mouse IgG1 Fc fragment
T2 sequence (Q62351 89-763): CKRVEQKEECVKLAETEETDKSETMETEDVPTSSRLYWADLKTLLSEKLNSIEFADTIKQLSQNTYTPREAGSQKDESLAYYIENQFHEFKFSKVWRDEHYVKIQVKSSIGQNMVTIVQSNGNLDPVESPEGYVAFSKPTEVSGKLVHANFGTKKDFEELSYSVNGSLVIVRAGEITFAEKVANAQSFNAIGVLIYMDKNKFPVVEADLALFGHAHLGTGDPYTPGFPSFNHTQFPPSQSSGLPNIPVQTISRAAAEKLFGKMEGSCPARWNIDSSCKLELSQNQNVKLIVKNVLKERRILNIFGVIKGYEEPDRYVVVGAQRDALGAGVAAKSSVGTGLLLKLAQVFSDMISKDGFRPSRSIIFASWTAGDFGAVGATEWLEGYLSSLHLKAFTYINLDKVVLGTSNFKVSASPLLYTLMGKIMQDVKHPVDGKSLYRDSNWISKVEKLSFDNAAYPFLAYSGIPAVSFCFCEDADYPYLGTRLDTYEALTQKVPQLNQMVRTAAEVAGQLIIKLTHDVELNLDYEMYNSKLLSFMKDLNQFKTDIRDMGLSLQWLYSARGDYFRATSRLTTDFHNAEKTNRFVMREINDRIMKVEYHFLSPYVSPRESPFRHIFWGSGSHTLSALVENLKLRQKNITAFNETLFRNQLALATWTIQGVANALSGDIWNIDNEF
Outline: as §1

[3] = molecular target: T3, rhesus monkey TfR ectodomain fused to a mouse IgG1 Fc fragment (rhesus monkey, UniProt I0FKY7 89-760); test: SPR, kinetic
T3 construct: extracellular domain; not shown: mouse IgG1 Fc fragment
Outline: as §1

[4] = molecular target: T2, mouse TfR ectodomain fused to a mouse …; test: SPR, at equilibrium
Outline: as §1

[5] = molecular target: T3, rhesus monkey TfR ectodomain fused to a …; test: SPR, at equilibrium
Outline: as §1

[6] = molecular target: T4, murine TfR expressed by murine neuroblastoma Neuro-2a cells (mouse, UniProt Q62351 1-763); test: competition with the fluorescent reference VHH on Neuro-2a cells as in FIG. 25; Ki/app on mTfR, free VHH
T4 construct: whole, on cells; also called mTfR (N2a cells)
T4 sequence (Q62351 whole entry): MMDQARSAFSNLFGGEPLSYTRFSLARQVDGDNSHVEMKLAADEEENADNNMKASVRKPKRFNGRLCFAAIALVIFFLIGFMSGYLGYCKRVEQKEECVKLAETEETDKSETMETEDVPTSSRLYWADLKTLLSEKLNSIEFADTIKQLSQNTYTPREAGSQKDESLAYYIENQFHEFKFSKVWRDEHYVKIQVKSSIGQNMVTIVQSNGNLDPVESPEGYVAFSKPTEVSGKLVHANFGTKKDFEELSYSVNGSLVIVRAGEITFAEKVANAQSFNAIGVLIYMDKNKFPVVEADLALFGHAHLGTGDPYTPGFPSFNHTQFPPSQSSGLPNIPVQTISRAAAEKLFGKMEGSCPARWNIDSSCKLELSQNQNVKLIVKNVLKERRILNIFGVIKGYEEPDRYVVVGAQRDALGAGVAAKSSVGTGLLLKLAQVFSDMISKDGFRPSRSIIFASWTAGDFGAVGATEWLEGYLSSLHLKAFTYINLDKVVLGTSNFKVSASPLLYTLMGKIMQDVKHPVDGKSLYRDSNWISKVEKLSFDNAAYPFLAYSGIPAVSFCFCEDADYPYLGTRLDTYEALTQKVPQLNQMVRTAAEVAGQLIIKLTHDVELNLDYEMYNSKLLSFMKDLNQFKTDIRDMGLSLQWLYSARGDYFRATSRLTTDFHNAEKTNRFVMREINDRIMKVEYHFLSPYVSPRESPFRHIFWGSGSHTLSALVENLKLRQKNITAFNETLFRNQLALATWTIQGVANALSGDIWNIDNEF
Protocol: The binding of VHH-Oligo and VHH-hFc-Oligo conjugates to mTfR was evaluated using a competition assay on living cells expressing the receptor of interest, namely murine neuroblastoma Neuro-2a cells (N2a). N2a cells were grown in Dulbecco's Modified Eagle Medium (DMEM) GlutaMAX supplemented with 10% v/v FBS in 5% CO₂ at 37° C. Cells were seeded two days before experiments in 96-well plates at a density of 50.000 cells/well. […] Resuspended cells were transferred in a 96-deepwell plate (V-bottom) containing 1% fetal bovine serum (FBS)/0.02% sodium azide in phosphate-buffered saline (PBS) and then centrifuged for 5 min at 2000 rpm at 4° C. After removing the supernatant, 5 mM EDTA in D-PBS and 4% paraformaldehyde (PFA) (v/v 1:1) were added into wells to fix cells for 15 min at room temperature. PFA was removed by centrifugation (5 min, 3000 rpm, 4° C.) and cells were resuspended with 5 mM EDTA in D-PBS. Then the cellular A680-associated fluorescence signal was quantified using an Attune™ NxT flow cytometer (Thermo Fisher Scientific) equipped with Attune™ NxT v3.1.2. Experimental data (experimental triplicates) were fitted with GraphPad Prism® software using a nonlinear fit to determine the apparent Ki inhibition constants.

[7] = molecular target: T5, human transferrin receptor (hTfR) fused to EGFP, on CHO cells (human, UniProt P02786 1-760); test: flow cytometry on CHO-hTfR-EGFP cells, 1 hr at 4 C, anti-6His + Alexa647 anti-mouse; ratio to background fluorescence
T5 construct: whole, on cells; also called human TfR; CHO-hTfR-EGFP; not shown: EGFP from pEGFP-C1 vector, fused to the N-terminal (intracellular) end of hTfR
T5 sequence (P02786 whole entry, the tested form may be a part): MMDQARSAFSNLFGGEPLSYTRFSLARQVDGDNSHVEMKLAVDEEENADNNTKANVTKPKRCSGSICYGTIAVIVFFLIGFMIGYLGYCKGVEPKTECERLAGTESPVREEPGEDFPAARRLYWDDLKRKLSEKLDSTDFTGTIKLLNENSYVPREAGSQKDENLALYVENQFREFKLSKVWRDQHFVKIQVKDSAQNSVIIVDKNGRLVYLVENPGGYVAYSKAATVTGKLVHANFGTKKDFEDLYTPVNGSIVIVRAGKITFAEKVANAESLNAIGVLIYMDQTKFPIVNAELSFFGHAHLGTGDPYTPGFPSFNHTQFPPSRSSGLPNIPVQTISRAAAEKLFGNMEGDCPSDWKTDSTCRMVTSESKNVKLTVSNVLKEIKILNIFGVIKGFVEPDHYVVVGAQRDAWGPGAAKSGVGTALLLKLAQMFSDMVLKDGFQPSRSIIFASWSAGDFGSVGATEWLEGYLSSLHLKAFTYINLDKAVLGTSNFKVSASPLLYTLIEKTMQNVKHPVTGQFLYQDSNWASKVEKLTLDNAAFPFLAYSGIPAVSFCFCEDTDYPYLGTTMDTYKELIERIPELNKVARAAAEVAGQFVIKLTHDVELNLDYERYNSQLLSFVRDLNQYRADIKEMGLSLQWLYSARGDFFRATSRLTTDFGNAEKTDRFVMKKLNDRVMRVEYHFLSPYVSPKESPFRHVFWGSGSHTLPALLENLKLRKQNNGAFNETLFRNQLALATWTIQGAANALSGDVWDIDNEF
Protocol: FIGS. 15A-15H: In vitro gene silencing activity of VHH-siGFPst1 bioconjugates. […] CHO-hTfR-EGFP cells were incubated 1 hr at 4° C. with various concentrations of the indicated compounds. Detection of VHHs was performed using a primary mouse anti-6His (1/1000) and an Alexa647-conjugated anti-mouse secondary antibody (1/400). Measurements of cell-surface signal associated to VHH were performed using flow cytometry. The results are expressed as the ratio of Alexa647-associated fluorescence intensity of test compounds to that of background fluorescence. […] The total fluorescence associated to the EGFP protein was then quantified using flow cytometry and rationalized to that of untreated (control) cells (set at 100%) *** p≤0.001. […] The total fluorescence associated with the EGFP protein was then quantified using flow cytometry and rationalized to that of untreated (control) cells (set at 100%). […] CHO-hTfR-EGFP cells were incubated with the indicated compounds at 1 μM during 120 hrs at 37° C. Data were processed and analyzed as described in (B). *** p≤0.001 vs. untreated cells. […] The total fluorescence associated with the EGFP protein was then quantified using flow cytometry and rationalized to that of untreated (control) cells (set at 100%).

[8] = molecular target: T5, human transferrin receptor (hTfR) fused …; test: competition flow cytometry on CHO-hTfR-EGFP cells, 4 C; VHH competitor in dilution series, phage-C5 tracer at EC80, anti-M13-A647
Protocol: FIGS. 17A-17D: Competition assays between VHHs and phage-VHHs. CHO-hTfR-EGFP cells were incubated 1 hr at 4° C. with VHHs (competitors) at increasing concentrations. Phage-VHHs (tracers) were then added at EC80 and incubated for 1 more hr. Phage-VHHs were detected with an anti-M13-A647 antibody (1/200). Fluorescence levels were assessed using flow cytometry. The ratio of fluorescence intensity for each point was normalized with the corresponding EGFP signal (receptor expression) and gave rise to the arbitrary unit. Data are presented as mean±SEM of independent experiments.
To evaluate whether selected VHHs compete one with the other for binding to the TfR receptor, competition assays using flow cytometry experiments were performed. All experiments were performed in 96 well plates using 2×10⁵ cells/well, at 4° C. with shaking. CHO cell line expressing the hTfR fused to EGFP was saturated with PBS/BSA 2% solution during 30 min to avoid nonspecific binding, followed by incubation with VHH (competitors) at increasing concentrations for 1 hr. Then, phage-VHHs (tracers) at EC80 were added and incubated 1 hr more. To detect the phage-VHHs, cells were washed twice with PBS/BSA 2% and incubated for 1 hr with an Alexa647-conjugated anti-M13 antibody. […] Fluorescence levels were assessed using an Attune NxT flow cytometer (Thermo Fisher Scientific). […]

T1 sequence (P02786 89-760): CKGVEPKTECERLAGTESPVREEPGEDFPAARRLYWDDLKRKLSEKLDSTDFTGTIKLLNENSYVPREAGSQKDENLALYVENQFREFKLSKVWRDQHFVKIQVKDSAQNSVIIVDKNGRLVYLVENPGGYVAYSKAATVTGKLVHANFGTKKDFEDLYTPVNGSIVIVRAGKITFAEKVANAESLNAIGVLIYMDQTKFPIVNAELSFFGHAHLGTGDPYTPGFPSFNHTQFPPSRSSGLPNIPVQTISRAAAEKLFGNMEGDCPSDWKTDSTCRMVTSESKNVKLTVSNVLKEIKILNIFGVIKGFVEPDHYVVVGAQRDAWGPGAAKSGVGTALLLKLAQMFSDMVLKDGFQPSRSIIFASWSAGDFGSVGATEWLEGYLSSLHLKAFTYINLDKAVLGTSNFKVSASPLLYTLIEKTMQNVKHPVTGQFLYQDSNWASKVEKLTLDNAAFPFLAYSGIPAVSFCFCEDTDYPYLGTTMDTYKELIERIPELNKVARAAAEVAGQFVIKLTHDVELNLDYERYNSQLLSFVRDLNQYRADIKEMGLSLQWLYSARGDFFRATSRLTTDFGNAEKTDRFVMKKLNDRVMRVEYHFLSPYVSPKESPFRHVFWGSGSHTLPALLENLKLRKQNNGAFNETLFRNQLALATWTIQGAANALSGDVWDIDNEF

B1: VHH A (C5) (VHH)
VHH: EVQLVESGGGVVQPGGSLKLSCVASGTDFSINFIRWYRQAPGKQREFVAGFTATGNTNYADSMKGRFTISRDNTKNAVYLQIDSLKPEDTAVYYCYMLDKWGQGTQVTVSS
notes: form with the C-terminal myc-His6 tag (x = 1), since the VHHs were detected with anti-6His or anti-cMyc; the same holds for m12 to m126
Kd [1]: 0.206 nM | koff [1]: 0.000179 s⁻¹ | kon [1]: 665000 M⁻¹ s⁻¹ | Kd [2]: 88.5 nM | koff [2]: 0.0447 s⁻¹ | kon [2]: 915000 M⁻¹ s⁻¹ | Kd [3]: 5.35 nM | koff [3]: 0.00774 s⁻¹ | kon [3]: 1.55e+06 M⁻¹ s⁻¹ | Kd [4]: 88.2 nM | Kd [5]: 13.1 nM | Ki [6]: 319 nM | EC50 (read off the curve) [7]: ~5 nM | IC50 (read off the curve) [8]: ~50 nM
